The source of these data is patent publication US20150024411A1.

For assay [1], the target named is human CD8 on CD8+ T cells of PBMC or whole blood (human) (UniProt P01732). The assay can be described thus: cell affinity chromatography: Fab on Strep-Tactin Sephadex-50, human PBMC, flow cytometry of start and flow-through. Background: Flow cytometry measures light scatter and fluorescence of single cells or particles in a stream.
For assay [2] the target is unchanged. Description: cell affinity chromatography: PBMC pre-incubated with Fab, Superflow Strep-Tactin column, FACS of start and wash fractions.
The target is the same in assay [3]. The assay can be described thus: Cell affinity chromatography on Strep-Tactin agarose functionalized with the anti-CD8 Fab, human PBMC; starting sample 24,1% CD8+ (a) [b].
Assay [4] shares this target. The assay can be described thus: Cell affinity chromatography on Strep-Tactin agarose functionalized with the anti-CD8 Fab, human PBMC; starting sample 24,1% CD8+ (a) [c].
The target is the same in assay [5]. The assay can be described thus: Cell affinity chromatography on Strep-Tactin agarose functionalized with the anti-CD8 Fab, human whole blood; starting sample 0,041% CD8+ (a) [b].
Assay [6] shares this target. Description: Cell affinity chromatography on Strep-Tactin agarose functionalized with the anti-CD8 Fab, human whole blood; starting sample 0,041% CD8+ (a) [c].
Assay [7] has the same target. The assay can be described thus: Flow cytometry of PBMC fractions from a Sephadex G50/Strep-Tactin column loaded with the CD8 Fab; the same marker reads 28 before selection (diagram A).
In assay [8] the target is murine CD4 on splenocytes (murine) (UniProt P06332). Description: Pipette tip cell affinity chromatography on Strep-Tactin agarose functionalized with the GK1.5 Fab, murine splenocytes; starting sample 21,7% CD4+ (a) [b].
UniProt P06332, sequence (P06332 27-457): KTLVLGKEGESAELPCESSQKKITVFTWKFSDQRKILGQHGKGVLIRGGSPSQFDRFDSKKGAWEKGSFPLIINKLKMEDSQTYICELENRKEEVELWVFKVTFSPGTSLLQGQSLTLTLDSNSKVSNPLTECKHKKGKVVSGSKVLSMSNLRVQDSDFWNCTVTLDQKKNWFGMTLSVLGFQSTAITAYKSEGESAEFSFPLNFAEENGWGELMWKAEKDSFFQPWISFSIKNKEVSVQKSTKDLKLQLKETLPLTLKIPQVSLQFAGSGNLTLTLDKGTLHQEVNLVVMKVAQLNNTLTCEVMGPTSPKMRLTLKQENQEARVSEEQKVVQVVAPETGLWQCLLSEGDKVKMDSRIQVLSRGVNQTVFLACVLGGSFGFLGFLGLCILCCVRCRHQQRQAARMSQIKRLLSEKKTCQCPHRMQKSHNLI
Assay [9] has the same target. Description: Pipette tip cell affinity chromatography on Strep-Tactin agarose functionalized with the GK1.5 Fab, murine splenocytes; starting sample 21,7% CD4+ (a) [c].
Assay [10] shares this target. The assay can be described thus: Pipette tip cell affinity chromatography on Strep-Tactin agarose functionalized with the GK1.5 Fab, murine splenocytes; starting sample 19,6% CD3+CD4+ (a) [b].
Assay [11] shares this target. Description: Pipette tip cell affinity chromatography on Strep-Tactin agarose functionalized with the GK1.5 Fab, murine splenocytes; starting sample 19,6% CD3+CD4+ (a) [c].
Assay [12] addresses human CD4 on CD4+ cells of PBMC or whole blood (human) (UniProt P01730). The assay can be described thus: Pipette tip cell affinity chromatography on Strep-Tactin agarose functionalized with the m13B8.2 Fab, human PBMC; starting sample 52,3% CD4+ (a) [b].
Assay [13] has the same target. Description: Pipette tip cell affinity chromatography on Strep-Tactin agarose functionalized with the m13B8.2 Fab, human PBMC; starting sample 52,3% CD4+ (a) [c].
Assay [14] shares this target. Description: Pipette tip cell affinity chromatography on Strep-Tactin agarose functionalized with the m13B8.2 Fab, human whole blood; starting sample 1,20% CD4+ (a) [b].
The target is the same in assay [15]. The assay can be described thus: Pipette tip cell affinity chromatography on Strep-Tactin agarose functionalized with the m13B8.2 Fab, human whole blood; starting sample 1,20% CD4+ (a) [c].

UniProt P01732, sequence (P01732 22-235): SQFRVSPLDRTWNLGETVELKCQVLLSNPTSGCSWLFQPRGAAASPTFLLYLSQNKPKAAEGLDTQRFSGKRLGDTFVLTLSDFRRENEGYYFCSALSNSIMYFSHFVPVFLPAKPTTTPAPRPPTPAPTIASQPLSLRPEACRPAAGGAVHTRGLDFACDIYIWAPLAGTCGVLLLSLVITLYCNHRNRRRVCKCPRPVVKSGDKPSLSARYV

“CD8 binding Fab fragment, heavy chain carboxy-terminally fused with a sequential arrangement of two streptavidin binding modules (IBA GmbH, catalogue number 6-8003)”: in assay [1], the percent of PBMC that are CD8+ T-cells bound to the column was found to be 12.1% and the percent of the CD8+ T-cells bound to the column was 66%. For the same substance, the percent of CD8+ cells retarded on the column in [2] came to 77.8%. In addition, in [3], the % CD8+ cells in the CD8-negative wash fraction was determined as 4.83%. In assay [4], this substance gave a % CD8+ cells in the biotin eluate fraction of 88.2%. Further, in assay [5], the % CD8+ cells in the CD8-negative wash fraction is 0.005%. The % CD8+ cells in the biotin eluate fraction in assay [6] is 79.8%. Besides, in [7], the % cells in the CD8-positive marker of the CD8 histogram, 1. elution fraction immediately with D-Biotin stood at 67%; the % cells in the CD8-positive marker of the CD8 histogram, 2. elution fraction after D-Biotin and subsequent washing was found to be 76%; the % cells in the CD8-positive marker of the CD8 histogram, wash through fraction is 10%.

In the case of “anti-CD4 Fab fragment with the wild-type variable domains of the CD4 binding antibody GK1.5 and two streptavidin binding modules at the C-terminus of the heavy chain”, the % CD4+ cells in the CD4-negative wash fraction in [8] was 2.78%. The substance further registered a % CD4+ cells in the biotin eluate fraction in assay [9] of 84.7%. This substance also returned a % CD3+CD4+ cells in the CD4-negative wash fraction in assay [10] of 0.977%. The % CD3+CD4+ cells in the biotin eluate fraction in assay [11] amounted to 80.8%.

On to “mutant Fab fragment m13B8.2 (variable domains of the CD4 binding murine antibody 13B8.2 with light chain His91Ala and heavy chain Arg53Ala, human CH1 gamma1 and human kappa constant domains, two streptavidin binding modules at the C-terminus of the heavy chain)”, for which the % CD4+ cells in the CD4-negative wash fraction was 5.88% in assay [12] and 0.144% in assay [14]. For the same substance, the % CD4+ cells in the biotin eluate fraction in assay [13] turned out to be 99.4%; in [15] it was 70.4%.
